The RNAGym collection of RNA variant scans (doi:10.1073/pnas.2313332121)

B1: TPR t1 (parent)
chain: GACCAAUCUGCCCUCAGAGCUCGAGAACAUCUUCGGAUGCAGAGGAGGCAGGCUUCGGUGGCGCGAUAGCGCCAACGUCCUCAACCUCCAAUGCAUCCCACCACAUGAUGAUGCCUGAAGAGCCUUGGUUUUUUG

Variants of: B1
Assay: polymerase ribozyme fitness, log enrichment relative to wild type (log ratio); higher = more active; in vitro selection for triplet polymerase activity
In short: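 Mutant libraries of both subunits of a heterodimeric triplet polymerase ribozyme were PCR-built, transcribed, and selected once in triplicate, with frozen incubation at −7 °C and capture of gel-excised extended constructs on streptavidin beads before RT-PCR. Illumina sequencing of input and output libraries was filtered to genotypes with ≥10 input reads and ≥1 read per output. Fitness is the logarithm of genotype enrichment over wild-type enrichment, using inverse-variance-weighted replicate averages. The logarithm is base 2.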

| Variant | polymerase ribozyme fitness (log ratio) |
| --- | --- |
| GACCAAUCUGCCCUCAGAGCUCGAGAACAUCUUCGGAUGCAGAGGAGGCAGGAUUCGGUGGCGCGAUAGCGCCAACGUCCUCAACCUCUAAUGCAUCCCACCACAUGAUGAUGCCUGAAGAGCCUUGGUUGUUUG [C53A C89U U131G] | 0.265 |
| GACCAAUCUGCCCUCAGAGCUCGAGAACAUCUUCGGAUGCAGAGGAGGCAGGAUUCGGUGGCGCGAUAGCGCCAACGUCCUCAACCUCCAAUGCAUCCCACCAAAUGAUGAUGCCUGAAGAGCCUUGGUUUUUUG [C53A C104A] | -1.8 |
| GACCAAUCUGCCCUCAGAGCUCGAGAACAUCUUCGGAUGCAGAGGAGGCAGGAUUCGGUGGCACGAUAGCGCCAACGUCCUCAACCUCCAAUGCAUCCCACCACAUGAUGAUGCUUGAAGAGCCUUGGUUUUUUG [C53A G63A C115U] | -3.96 |
| GACCAAUCUGCCCUCAGAGCUCGAGAACAUCUUCGGAUGCAGAGGAGGCAGGAUUCGGUGGCGCGAUAGCGCCAACGUCCUCAACCUCCAAUGCAUCCCACCACAUGAUGAUGCCUGAAGAGCGUUGGUUUUUUG [C53A C124G] | 0.737 |
| GACCAAUCUGCCCUCAGAGCUCGAGAACAUCUUCGGAUGCAGAGGAGGCAGGAUUCGGUGGCGCGAUAGCGCCAACGUCCUCAACCUCCAAUGCAUCUCACCACAUGAUGAUGCCUGAAGAGCCUUGGUUUUUUG [C53A C98U] | -0.601 |
| GACCAAUCUGCCCUCAGAGCUCGAGAACAUCUUCGGAUGCAGAGGAGGCAGGAUUCGGUGGCGCGAUAGCGCCAACGUCCUCAACCUCCAAUGCAUCACACCACAUGAUGAUGCCUGAAGAGCCUUGGUUUUUUG [C53A C98A] | -5.56 |
| GACCAAUCUGCCCUCAGAGCUCGAGAACAUCUUCGGAUGCAGAGGAGGCAGGAUUCGGUAGCGCGAUAGCGCCAACGCCCUCAACCUCCAAUGCAUCCCACCACAUGAUGAUGCCUGAAGAGCCUUGGUUUUUUG [C53A G60A U78C] | 0.136 |
| GACCAAUCUGCCCUCAGAGCUCGAGAACAUCUUCGGAUGCAGAGGAGGCAGGAUUCGGUGCCGCGAUAGCGCCAACGUCCUCAACCUCCAAUGCAUCCCACCACAUGAUGAUGCCUGAAGAGCCUUGGUUUUUUG [C53A G61C] | -4.19 |
| GACCAAUCUGCCCUCAGAGCUCGAGAACAUCUUCGGAUGCAGAGGAGGCAGGAUUCUGUGGCGCGAUAGCGCCAACGUCCUCAACCUCCAAUCCAUUCCACCACAUGAUGAUGCCUGAAGAGCCUUGGUUUUUUG [C53A G57U G93C C97U] | -0.989 |
| GACCAAUCUGCCCUCAGAGCUCGAGAACAUCUUCGGAUGCAGAGGAGGCAGGAUUCGGUGGCGCGAUAGCGCCAACGUCCUCAACCUCCAAUGCAUACCACCACAUGAUGAUGCCUGAAGAGCCUUGGUUUUUUG [C53A C97A] | -4.2 |
| GACCAAUCUGCCCUCAGAGCUCGAGAACAUCUUCGGAUGCAGAGGAGGCAGGAUUCGGUGGCGCGAUAGCGCCAACGUCCUCAACCUCCAAUGCAUCUCACCACAUGAUGAGGCCUGAAGAGCCUUGGUUUUUUG [C53A C98U U112G] | -3.36 |
| GACCAAUCUGCCCUCAGAGCUCGAGAACAUCUUCGGAUGCAGAGGAGGCAGGAUUCGGUGGCCCGAUAGCGCCAACGUCCUCAACCUCCAAUGCAUCCCACCACAUGAUGAUGCCUGAAGAGCCUUGGUUUUUUG [C53A G63C] | -2.92 |
| GACCAAUCUGCCCUCAGAGCUCGAGAACAUCUUCGGAUGCAGAGGAGGCAGGAUUCGGUGUCGCGAUAGCGUCAACGUCCUCAACCCCCAAUGCAUCCCACCACAUGAUGAUGCCUGAAGAGCCUUAGUUUUUUG [C53A G61U C72U U87C G127A] | -1.15 |
| GACCAAUCUGCCCUCAGAGCUCGAGAACAUCUUCGGAUGCAGAGGAGGCAGGAUUCGGUAGCGCGAUAGCGCCAACGUCCUCAAGCUCCAAUGCAUCCCACCACAUGAUGAUGCCUGAAGAGCCUUGGUUUUUUG [C53A G60A C85G] | -1.1 |
| GACCAAUCUGCCCUCAGAGCUCGAGAACAUCUUCGGAUGCAGAGGAGGCAGGAUUCGGUGGCACGAUAGCGCCAACGUCCUCAACCUCCAAUACAUCCCACCACAUGAUGAUGCCUGAAGAGCCUUGGUUUUUUG [C53A G63A G93A] | -1.34 |
| GACCAAUCUGCCCUCAGAGCUCGAGAACAUCUUCGGAUGCAGAGGAGGCAGGAUUCGGUAGCGCGAUAGCGCCAACGUCCUCAACCUCCAAUGCAUCCCACCACCUGAUGAUGCCUGAAGAGCCUUGGUUUUUUG [C53A G60A A105C] | -2.91 |
| GACCAAUCUGCCCUCAGAGCUCGAGAACAUCUUCGGAUGCAGAGGAGGCAGGAUUCGGUGGCGCGAUAGCGCCAACGUCCUCAACCUCCAAUGCAUCCCACCACAUGAUGAUGCUUGAAGAGCCUUGGUUUUUUG [C53A C115U] | -0.961 |
| GACCAAUCUGCCCUCAGAGCUCGAGAACAUCUUCGGAUGCAGAGGAGGCAGGAUUCGGUGGCGCGAUAGCGCCAACGUCCUCAACCUCCAAUGAAUCCCACCACAUGAUGACGCCUGAAGAGCCUUGGUUUUUUG [C53A C94A U112C] | 1.14 |
| GACCAAUCUGCCCUCAGAGCUCGAGAACAUCUUCGGAUGCAGAGGAGGCAGGAUUCGGUUGCGCGAUAGCGCCAACGUCCUCAACCUCCAAUGCAUCCCACCACAAGAGGAUUCCUGAAGAGCCUUGGUUUUUUG [C53A G60U U106A U109G G113U] | -5.78 |
| GACCAAUCUGCCCUCAGAGCUCGAGAACAUCUUCGGAUGCAGAGGAGGCAGGAUUCGGUAGCGCGAUAGCGACAACGUCCUCAACCUCCAUGGCAUACCACCACAUGAUGAUGCCUGAAGAGCAUUGGUUUUUUG [C53A G60A C72A A91U U92G C97A C124A] | -7.15 |
| GACCAAUCUGCCCUCAGAGCUCGAGAACAUCUUCGGAUGCAGAGGAGGCAGGAUUCAGUGGCGCGAUAGCGCCAACGUCCUCAACCUCCAAUCCAUCCCACCACAUGAUGAUGCCUGAAGAGCCUUGGUUUUUUG [C53A G57A G93C] | -0.961 |
